Paper PMC4459711
Read-outs that look alike come from different tables or passages of the source.

Columns and labels:
Assay in all cases: X-ray crystallography
[1] = biological target: T1, L1750 (LACV L protein, residues 1-1750) (La Crosse virus (strain …, UniProt A5HC98 1-1750))
[2] = biological target: T1, L1750 (LACV L protein, residues 1-1750); remark: listed apart in the source
[3] = biological target: T1, L1750 (LACV L protein, residues 1-1750); remark: listed apart in the source

T1 sequence (A5HC98 1-1750): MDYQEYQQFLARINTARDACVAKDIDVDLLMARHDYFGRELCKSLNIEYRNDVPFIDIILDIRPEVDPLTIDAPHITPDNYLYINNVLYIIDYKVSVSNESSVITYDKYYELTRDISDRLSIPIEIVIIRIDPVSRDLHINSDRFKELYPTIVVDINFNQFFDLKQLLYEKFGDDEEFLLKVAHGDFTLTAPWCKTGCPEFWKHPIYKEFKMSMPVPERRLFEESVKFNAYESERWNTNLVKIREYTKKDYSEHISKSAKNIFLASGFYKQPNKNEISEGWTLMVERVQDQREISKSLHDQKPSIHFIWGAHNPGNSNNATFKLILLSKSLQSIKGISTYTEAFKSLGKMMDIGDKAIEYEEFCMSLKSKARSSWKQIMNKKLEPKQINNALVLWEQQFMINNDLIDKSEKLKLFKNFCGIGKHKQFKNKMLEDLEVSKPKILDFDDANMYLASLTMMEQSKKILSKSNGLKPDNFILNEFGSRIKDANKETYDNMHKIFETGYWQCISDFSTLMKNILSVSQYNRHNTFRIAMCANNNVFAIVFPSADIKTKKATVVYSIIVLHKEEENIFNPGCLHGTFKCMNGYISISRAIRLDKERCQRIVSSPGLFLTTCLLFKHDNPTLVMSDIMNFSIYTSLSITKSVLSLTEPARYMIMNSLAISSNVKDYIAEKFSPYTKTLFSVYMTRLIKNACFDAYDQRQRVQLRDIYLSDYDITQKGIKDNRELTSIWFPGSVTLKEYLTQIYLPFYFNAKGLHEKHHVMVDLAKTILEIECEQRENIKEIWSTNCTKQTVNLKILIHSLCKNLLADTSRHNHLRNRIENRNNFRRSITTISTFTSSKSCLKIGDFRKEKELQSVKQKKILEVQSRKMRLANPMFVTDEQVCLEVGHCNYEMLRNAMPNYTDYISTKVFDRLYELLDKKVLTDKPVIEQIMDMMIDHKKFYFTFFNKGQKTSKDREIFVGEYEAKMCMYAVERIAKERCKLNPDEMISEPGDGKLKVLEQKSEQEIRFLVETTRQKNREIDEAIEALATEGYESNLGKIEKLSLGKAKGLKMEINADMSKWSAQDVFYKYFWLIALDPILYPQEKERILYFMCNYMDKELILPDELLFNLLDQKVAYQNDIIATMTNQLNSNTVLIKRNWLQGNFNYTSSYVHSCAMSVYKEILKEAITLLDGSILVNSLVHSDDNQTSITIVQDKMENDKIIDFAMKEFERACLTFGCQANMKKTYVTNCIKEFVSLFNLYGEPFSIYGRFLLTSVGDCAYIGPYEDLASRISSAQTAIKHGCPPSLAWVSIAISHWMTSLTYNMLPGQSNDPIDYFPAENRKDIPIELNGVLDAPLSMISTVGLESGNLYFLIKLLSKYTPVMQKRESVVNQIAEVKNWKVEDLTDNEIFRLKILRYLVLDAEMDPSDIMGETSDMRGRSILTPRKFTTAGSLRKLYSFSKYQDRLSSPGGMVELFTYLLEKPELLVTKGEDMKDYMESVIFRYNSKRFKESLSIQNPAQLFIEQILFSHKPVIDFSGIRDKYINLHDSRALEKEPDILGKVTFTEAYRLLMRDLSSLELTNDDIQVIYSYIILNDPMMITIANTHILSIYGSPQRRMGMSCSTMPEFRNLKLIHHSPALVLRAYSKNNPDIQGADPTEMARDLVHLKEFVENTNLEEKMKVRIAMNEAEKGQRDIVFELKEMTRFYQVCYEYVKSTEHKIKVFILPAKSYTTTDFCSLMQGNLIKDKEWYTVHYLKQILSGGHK

AGUAGUGUGCU (structured_RNA) [5' vRNA 1-11]
binding result [1]: binds

AGUAGUGUGC (structured_RNA, 5' phosphate) [5' vRNA 1-10 (hook)]
binding result [2]: binds

B1: 3' vRNA 1-16 / 5' vRNA 9-16 partial duplex (mixed)
RNA 1: UUGGUAGUACACUACU
RNA 2: GCUACCAA
binding result [3]: binds
